1 sequence from patent US20220243196 can be followed below.

The test system of data set [1] is Influenza A virus (serum containing virus) (Influenza A virus). Nature of the data set: ELONA.
Data set [2] deals with Hantavirus (serum containing virus; nuclear protein) (Hantavirus). The data set can be described thus: ELONA.

Consider “ATCCAGAGTGACGCAGCACACATCGGAGAACAGGCGCACTGTCGGAGGAACCGCAACGTGGACACGGTGGCTTAGT [biotin-aptamer 3]”, for which the binding signal (a.u. absorbance) in data set [1] and in data set [2] was 0.1 in each case.
